Data published in US20230137032A1 (GlaxoSmithKline, published 2023).

Assays:
[1] = molecular target: T1, recombinant human BCMA Fc 4-53 (human); assay: ELISA, neutralisation of ligand binding to plate-coated BCMA Fc 4-53; competitor BAFF; competitor BAFF
T1 construct: also called Human BCMA CD33-hBCMA ECD (4-53) TEV-Fc; recombinant BCMA
Experimental: (§1) 96 well flat bottomed plates were coated overnight with 1 μg/mL solution of recombinant human BCMA Fc 4-53 in PBS. Following a wash step using 0.05% TWEEN20, plates were blocked with 2% Bovine Serum Albumin solution in PBS for 1 hour at room temperature. […] 40 μL of 2% BSA was added to the relevant control wells. […] Equivalent volume of 2% BSA was added to the relevant control wells. Plates were allowed to incubate for 2 hours at room temperature, after which they were washed as before. […] Following a wash step, 50 µL of a 1:4000 dilution of Streptavidin-HRP (Amersham RPN4401) was added to each well and incubated for 30 minutes at room temperature. The wash process was repeated again followed by the addition of […] of Tetramethylbenzidine substrate solution (T8665, Sigma) into each well. Plates were incubated for 20-25 minutes at room temperature, wrapped in foil. The reaction was stopped with the addition of […] of 1M H₂SO₄. Optical density was determined at 450 nm using Spectromax reader.

[2] = molecular target: T1, recombinant human BCMA Fc 4-53; assay: ELISA, neutralisation of ligand binding to plate-coated BCMA Fc 4-53; competitor APRIL; competitor APRIL
Experimental: as §1

[3] = molecular target: T2, human BCMA expressed on cells (human, UniProt Q02223 1-184); assay: cell-based or functional assay
T2 sequence (looked up): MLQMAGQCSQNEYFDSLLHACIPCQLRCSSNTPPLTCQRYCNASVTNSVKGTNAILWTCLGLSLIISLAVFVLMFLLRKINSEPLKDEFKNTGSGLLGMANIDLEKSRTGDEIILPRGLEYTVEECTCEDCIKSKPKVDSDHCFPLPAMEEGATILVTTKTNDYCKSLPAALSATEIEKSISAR

[4] = molecular target: T1, recombinant human BCMA Fc 4-53; assay: competition ELISA: binding of recombinant human BAFF to coated recombinant human BCMA Fc 4-53, biotinylated anti-BAFF and streptavidin-HRP, % of control
Experimental: as §1

[5] = molecular target: T1, recombinant human BCMA Fc 4-53; assay: competition ELISA: binding of recombinant human APRIL to coated recombinant human BCMA Fc 4-53, biotinylated anti-APRIL and streptavidin-HRP, % of control
Experimental: as §1

[6] = molecular target: T3, recombinant human BCMA, commercial (US Biological, B0410) (human, UniProt Q02223 5-54, limits assumed); assay: ProteOn SPR run 2, antibody captured on Protein A, 25C
T3 construct: also called commercial human BCMA; Human commercial BCMA
T3 chain (looked up): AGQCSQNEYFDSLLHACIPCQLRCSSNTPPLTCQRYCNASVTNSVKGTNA

[7] = molecular target: T4, recombinant cyno BCMA, in house material (cyno, UniProt A0A2K5UD97 4-52); assay: as above
T4 construct: also called Cyno in house BCMA

[8] = molecular target: T2, human BCMA expressed on cells; assay: FACS on ARH77-hBCMA 10B5 transfectant cells, PE anti-human IgG, MFI
Experimental: Cells were then washed with FACS buffer (PBS+0.5% BSA+0.1% sodium azide) to remove unbound antibody. Cells were incubated with a secondary PE labelled anti-human IgG antibody for 15 minutes at RT and then washed with FACS buffer to remove unbound antibody. Cells were analysed by FACS and mean fluorescence intensity (MFI) values measured to determine binding.

[9] = molecular target: T3, recombinant human BCMA, commercial (US …); assay: Biacore T100, antibody captured on Protein A, 25C, experiment 1
Experimental: (§2) Protein A was immobilised on a CMS chip (GE Healthcare, Cat No: BR-1005-30) by primary amine coupling and this surface was then used to capture the antibody molecules. Recombinant human BCMA (US Biological, B0410) was used as analyte at 256 nM, 64 nM, 16 nM, 4 nM and 1 nM. Regeneration of the capture surface was carried out using 50 mM NaOH. All binding curves were double referenced with a buffer injection (i.e. 0 nM) the data was fitted to the using the 1:1 model inherent to T100 evaluation software. The run was carried out at 25° C. and 37° C. for experiment 1 and only 37° C. for experiment 2 using HBS-EP as the running buffer.

[10] = molecular target: T5, recombinant human BCMA, in house material (human, UniProt Q02223 4-53, limits assumed); assay: ProteOn SPR run 2, antibody captured on Protein A, 25C; Run 2 (Table 9)
T5 construct: also called Human in house BCMA; In house human BCMA
Experimental: (§3) The initial screen of CA8 chimeric and humanised variants was carried out on the ProteOn XPR36 (Biorad). The method was as follows; Protein A was immobilised on a GLC chip (Biorad, Cat No: 176-5011) by primary amine coupling, CA8 variants were then captured on this surface and recombinant human BCMA (in house or commercial US Biological, B0410) materials (run 2 only)) passed over at 256, 64, 16, 4, 1 nM with a 0 nM injection (i.e. buffer alone) used to double reference the binding curves, the buffer used is the HBS-EP buffer. 50 mM NaOH was used to regenerate the capture surface. The data was fitted to the 1:1 model using the analysis software inherent to the ProteOn XPR36. […] Both runs were carried out at 25° C.

[11] = molecular target: T3, recombinant human BCMA, commercial (US …); assay: Biacore T100, antibody captured on Protein A, 37C, experiment 2
Experimental: as §2

[12] = molecular target: T3, recombinant human BCMA, commercial (US …); assay: Biacore T100, antibody captured on Protein A, 37C, experiment 1
Experimental: as §2

[13] = molecular target: T2, human BCMA expressed on cells; assay: FACS on ARH77-hBCMA 10B5 transfectant cells, antibody 5 µg/mL, PE anti-mouse IgG
Experimental: (§4) Cells were incubated for 20 mins at room temperature (RT) and then washed with FACS buffer (PBS+0.5% BSA+0.1% sodium azide) to remove unbound antibody. Cells were incubated with a secondary PE labelled anti-mouse IgG antibody for 15 minutes at RT and then washed with FACS buffer to remove unbound antibody. Cells were analysed by FACS to detect antibody bound to the cells.

[14] = molecular target: T5, recombinant human BCMA, in house …; assay: ProteOn SPR, antibody captured on Protein A, 25C
Experimental: The initial screen of the new chimeric variants from the second batch of hybridomas was carried out on the ProteOn XPR36 (Biorad). The method was as follows; Protein A was immobilised on a GLM chip (Biorad, Cat No: 176-5012) by primary amine coupling, anti-BCMA variants were then captured on this surface and recombinant human BCMA (in house material) passed over at 256, 64, 16, 4, 1 nM with a 0 nM injection (i.e. buffer alone) used to double reference the binding curves, the buffer used is the HBS-EP buffer. Regeneration of the capture surface was carried out using 50 mM NaOH. The data was fitted to the 1:1 model using the analysis software inherent to the ProteOn XPR36. The run was carried out at 25° C.

[15] = molecular target: T2, human BCMA expressed on cells; assay: FACS on H929 multiple myeloma cells, antibody 5 µg/mL, PE anti-mouse IgG
Experimental: as §4

[16] = molecular target: T5, recombinant human BCMA, in house …; assay: ProteOn SPR run 1, antibody captured on Protein A, 25C; Run 1 (Table 8)
Experimental: as §3

B1: J6M0 potelligent antibody (afucosylated humanised CA8 J6M0) (antibody, human IgG1, kappa, V domains shown)
VH: QVQLVQSGAEVKKPGSSVKVSCKASGGTFSNYWMHWVRQAPGQGLEWMGATYRGHSDTYYNQKFKGRVTITADKSTSTAYMELSSLRSEDTAVYYCARGAIYDGYDVLDNWGQGTLVTVSS
VL: DIQMTQSPSSLSASVGDRVTITCSASQDISNYLNWYQQKPGKAPKLLIYYTSNLHSGVPSRFSGSGSGTDFTLTISSLQPEDFATYYCQQYRKLPWTFGQGTKLEIKR
modifications: afucosylated (Potelligent) Fc glycan
notes: human IgG1 kappa; also called J6M0 potelligent version; CA8 J6M0 Potelligent
[1]
  EC50: 0.748 µg/mL
[2]
  EC50: 0.616 µg/mL
[3]
  IC50 for inhibition of APRIL signalling (phosphorylated NFkappaB in washed H-929 cells): 2.43 µg/mL
  IC50 for inhibition of BAFF signalling (phosphorylated NFkappaB in washed H-929 cells): 0.91 µg/mL
[4]
  IC50 (read off the curve): ~0.7 µg/mL
[5]
  IC50 (read off the curve): ~0.6 µg/mL

B2: CA8 humanised J6M0 (antibody, human IgG1, kappa, V domains shown)
VH: QVQLVQSGAEVKKPGSSVKVSCKASGGTFSNYWMHWVRQAPGQGLEWMGATYRGHSDTYYNQKFKGRVTITADKSTSTAYMELSSLRSEDTAVYYCARGAIYDGYDVLDNWGQGTLVTVSS
VL: DIQMTQSPSSLSASVGDRVTITCSASQDISNYLNWYQQKPGKAPKLLIYYTSNLHSGVPSRFSGSGSGTDFTLTISSLQPEDFATYYCQQYRKLPWTFGQGTKLEIKR
notes: Humanised CA8, heavy chain J6 with light chain M0, human IgG1 kappa; also called CA8 J6M0; humanised J6M0 (wild type)
[1]
  EC50: 0.776 µg/mL
[6]
  Kd: 86 pM
[7]
  Kd: 5630 pM
[8]
  binding result: binds
[9]
  Kd: 121 pM
[2]
  EC50: 0.63 µg/mL
[4]
  IC50 (read off the curve): ~0.7 µg/mL
[10]
  Kd: 308 pM
[11]
  Kd: 498 pM
[5]
  IC50 (read off the curve): ~0.6 µg/mL
[12]
  Kd: 698 pM

B3: murine S332126E04 (antibody, V domains shown)
VH: QVQLQQPGAELVKPGASVKLSCKASGYTFTNYWMHWVKQRPGQGLEWIGIIHPNSGSTNYNEKFKSKATLTVDKSSSTAYMQLSSLTSEDSAVYYCARGIYDYPFAYWGQGTLVTVSS
VL: DIVLTQSPASLAVSLGQRATISCRASESVSIHGTHLMHWYQQKPGQPPKLLIYAASNLESGVPARFSGSGSETDFTLNIHPVEEEDAATYFCQQSIEDPYTFGGGTKLEIKR
notes: Murine hybridoma antibody
[13]
  binding result: binds

B4: S332121F02 chimeric antibody (antibody, human IgG1, kappa, V domains shown)
VH: EVQLQQSGPVLVKPGASVKMSCEASGYTFTDYYMNWVKQSHGKTLEWIGVINPYNGGTDYNQKFKGKATLTVDKSSSTAYMELNSLTSEDSAVYYCARSVYDYPFDYWGQGTLVTVSS
VL: DIVLTQSPASLAVSLGQRATISCRASESVSIHGTHLMHWYQQKPGQPPKLLIYAASNLESGVPARFSGSGSETDFTLNIHPVEEEDAATYFCQQSIEDPRTFGGGTKLEIKR
notes: Section 4.10 says that the samples are new chimeric constructs (human IgG1 kappa)
[14]
  Kd: 17300 pM

B5: murine S322110D07 (antibody, V domains shown)
VH: EVQLQQSGPELVKPGTSVKIPCKTSGYIFTDYSIDWVKQSHGKSLEWIGDIDPNYGDPIYNHKFKGKATLTVDRSSSTAYMELRSLTSEDTAVYFCARRATGTDWFAFWGQGTLVTVSS
VL: DIQMTQSPASLSVSVGETVTITCRASENIYNNLAWYQQKQGKSPQLLVYAATILADGVPSRFSGSGSGTQYSLKINSLQSGDFGTYYCQHFWGTPLTFGAGTKLELKR
notes: Murine hybridoma antibody; also called S3222110D07; S3322110D07
[15]
  binding result: binds

B6: S322110D07 chimeric antibody (printed S332110D07 in Table 12) (antibody, human IgG1, kappa, V domains shown)
VH: EVQLQQSGPELVKPGTSVKIPCKTSGYIFTDYSIDWVKQSHGKSLEWIGDIDPNYGDPIYNHKFKGKATLTVDRSSSTAYMELRSLTSEDTAVYFCARRATGTDWFAFWGQGTLVTVSS
VL: DIQMTQSPASLSVSVGETVTITCRASENIYNNLAWYQQKQGKSPQLLVYAATILADGVPSRFSGSGSGTQYSLKINSLQSGDFGTYYCQHFWGTPLTFGAGTKLELKR
notes: Section 4.10 says that the samples are new chimeric constructs (human IgG1 kappa); also called chimeric S322110D07
[14]
  Kd: 12100 pM

B7: murine S332121F02 (antibody, V domains shown)
VH: EVQLQQSGPVLVKPGASVKMSCEASGYTFTDYYMNWVKQSHGKTLEWIGVINPYNGGTDYNQKFKGKATLTVDKSSSTAYMELNSLTSEDSAVYYCARSVYDYPFDYWGQGTLVTVSS
VL: DIVLTQSPASLAVSLGQRATISCRASESVSIHGTHLMHWYQQKPGQPPKLLIYAASNLESGVPARFSGSGSETDFTLNIHPVEEEDAATYFCQQSIEDPRTFGGGTKLEIK
notes: Murine hybridoma antibody
[15]
  binding result: binds

B8: S307118G03 Chimera (antibody, human IgG1, kappa, V domains shown)
VH: EVQLQQSGPELVKPGASVKISCKASGYTFTDYYMKWVKQSHGKSLEWIGEIYPNNGGITYNQKFKGKATLTVDKSSSTAYMELRSLTSEDSAVYYCANGYEFVYWGQGTLVTVSA
VL: DIQMTQTASSLSASLGDRVTISCSASQGISNYLNWYQQKPDGTVKLLIYYTSSLHSGVPSRFSGSGSGTDYSLTISNLEPEDIATYYCQQYSKLPWTFGGGTKLELKR
notes: also called chimeric S307118G03
[16]
  Kd: 4110 pM
[6]
  Kd: 956 pM
[7]
  binding result: no binding
[10]
  Kd: 3440 pM
